The source of these data is paper PMC5828407 (Veterinary Research, 2018).

This assay deals with GST-tagged FaeG fusion protein of F4ac (Escherichia coli, UniProt P14190 22-283). Briefly: ELISA; APN protein coated on plates, incubated with FaeG peptides, fusion FaeG proteins or F4 fimbriae; absorbance at 450 nm. The settings on record: both partners purified.

B1: porcine aminopeptidase N (APN), His-tagged whole protein (receptor)
chain: MAKGFYISKALGILGILLGVAAVATIIALSVVYAQEKNKNAEHVPQAPTSPTITTTAAITLDQSKPWNRYRLPTTLLPDSYNVTLRPYLTPNADGLYIFKGKSIVRLLCQEPTDVIIIHSKKLNYTTQGHMVVLRGVGDSQVPEIDRTELVELTEYLVVHLKGSLQPGHMYEMESEFQGELADDLAGFYRSEYMEGNVKKVLATTQMQSTDARKSFPCFDEPAMKATFNITLIHPNNLTALSNMPPKGSSTPLAEDPNWSVTEFETTPVMSTYLLAYIVSEFQSVNETAQNGVLIRIWARPNAIAEGHGMYALNVTGPILNFFANHYNTSYPLPKSDQIALPDFNAGAMENWGLVTYRENALLFDPQSSSISNKERVVTVIAHELAHQWFGNLVTLAWWNDLWLNEGFASYVEYLGADHAEPTWNLKDLIVPGDVYRVMAVDALASSHPLTTPAEEVNTPAQISEMFDSISYSKGASVIRMLSNFLTEDLFKEGLASYLHAFAYQNTTYLDLWEHLQKAVDAQTSIRLPDTVRAIMDRWTLQMGFPVITVDTKTGNISQKHFLLDSESNVTRSSAFDYLWIVPISSIKNGVMQDHYWLRDVSQAQNDLFKTASDDWVLLNVNVTGYFQVNYDEDNWRMIQHQLQTNLSVIPVINRAQVIYDSFNLATAHMVPVTLALDNTLFLNGEKEYMPWQAALSSLSYFSLMFDRSEVYGPMKKYLRKQVEPLFQHFETLTKNWTERPENLMDQYSEINAISTACSNGLPQCENLAKTLFDQWMSDPENNPIHPNLRSTIYCNAIAQGGQDQWDFAWGQLQQAQLVNEADKLRSALACSNEVWLLNRYLGYTLNPDLIRKQDATSTINSIASNVIGQPLAWDFVQSNWKKLFQDYGGGSFSFSNLIQGVTRRFSSEFELQQLEQFKKNNMDVGFGSGTRALEQALEKTKANIKWVKENKEVVLNWFIEHS
Take B1: the binding result is on record as “binds”.
